# Reference: patent US20240279318A1 (NANJING LEGEND BIOTECH, published 2024)
# Legend:
# [1] = target: T1, AFP158/HLA-A*02:01 complex (human); experiment: SPR, scFv captured, pMHC in flow;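 note: complex injected at several concentrations over crude scFv, association then running-buffer dissociation, KD estimated from kinetic on- and off-rate constants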
# T1 construct: flowed over the chip in SPR; also called AFP158 pro
# Description: (§1) The experiment was carried out as follows. The crude scFv protein were captured onto the sensorchip. Different concentrations (320, 160, 40 nM) of AFP158/HLA-A*02:01 complex flowed over the sensorchip surface, and were allowed to bind the antibody fragment for 100 s followed by injection of the running buffer to allow dissociation of the complex. On-rate (kd) and off-rate (kd) were calculated based on association and dissociation curve, and were used to estimate the equilibrium dissociation constant (KD).
# [2] = target: T1, AFP158/HLA-A*02:01 complex; experiment: SPR, KD ratio to AS170036 VL1VH1;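 note: crude scFv captured on a sensor chip, peptide–HLA complex passed over at several concentrations, association then buffer dissociation, KD derived from on- and off-rates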
# Description: as §1
Kd [1],Affinity increase [2],Binder
300 nM,0.8 fold,"HG56R (scFv, AS170036 VL1VH1 scFv mutein) scFv: QSALTQPRSVSGSPGQSVTISCAGTSSDVGSENYVSWYQQHPGKAPKLMIYQVNKRASGVPDRFSGSKSGNTASLTISGLQAEDEADYYCASYRSSDHNIVFGGGTKLTVLGGGGSGGGGSGGGGSEVQLVESGGGLVQPGGSLRLSCAASGFTFSSYAMSWVRQAPGKGLEWVSTINSGTRSPYYADSVKGRFTISRDNSKNTLYLQMNSLRAEDTAVYYCAKNFFDGSWFLGPPAMDYWGQGTLVTVSSHHHHHH"
240 nM,1.1 fold,"HL107I (scFv, AS170036 VL1VH1 scFv mutein) scFv: QSALTQPRSVSGSPGQSVTISCAGTSSDVGSENYVSWYQQHPGKAPKLMIYQVNKRASGVPDRFSGSKSGNTASLTISGLQAEDEADYYCASYRSSDHNIVFGGGTKLTVLGGGGSGGGGSGGGGSEVQLVESGGGLVQPGGSLRLSCAASGFTFSSYAMSWVRQAPGKGLEWVSTINSGTGSPYYADSVKGRFTISRDNSKNTLYLQMNSLRAEDTAVYYCAKNFFDGSWFIGPPAMDYWGQGTLVTVSSHHHHHH"
530 nM,0.5 fold,"HL107N (scFv, AS170036 VL1VH1 scFv mutein) scFv: QSALTQPRSVSGSPGQSVTISCAGTSSDVGSENYVSWYQQHPGKAPKLMIYQVNKRASGVPDRFSGSKSGNTASLTISGLQAEDEADYYCASYRSSDHNIVFGGGTKLTVLGGGGSGGGGSGGGGSEVQLVESGGGLVQPGGSLRLSCAASGFTFSSYAMSWVRQAPGKGLEWVSTINSGTGSPYYADSVKGRFTISRDNSKNTLYLQMNSLRAEDTAVYYCAKNFFDGSWFNGPPAMDYWGQGTLVTVSSHHHHHH"
160 nM,1.5 fold,"HG56S (scFv, AS170036 VL1VH1 scFv mutein) scFv: QSALTQPRSVSGSPGQSVTISCAGTSSDVGSENYVSWYQQHPGKAPKLMIYQVNKRASGVPDRFSGSKSGNTASLTISGLQAEDEADYYCASYRSSDHNIVFGGGTKLTVLGGGGSGGGGSGGGGSEVQLVESGGGLVQPGGSLRLSCAASGFTFSSYAMSWVRQAPGKGLEWVSTINSGTSSPYYADSVKGRFTISRDNSKNTLYLQMNSLRAEDTAVYYCAKNFFDGSWFLGPPAMDYWGQGTLVTVSSHHHHHH"
340 nM,0.7 fold,"HG56T (scFv, AS170036 VL1VH1 scFv mutein) scFv: QSALTQPRSVSGSPGQSVTISCAGTSSDVGSENYVSWYQQHPGKAPKLMIYQVNKRASGVPDRFSGSKSGNTASLTISGLQAEDEADYYCASYRSSDHNIVFGGGTKLTVLGGGGSGGGGSGGGGSEVQLVESGGGLVQPGGSLRLSCAASGFTFSSYAMSWVRQAPGKGLEWVSTINSGTTSPYYADSVKGRFTISRDNSKNTLYLQMNSLRAEDTAVYYCAKNFFDGSWFLGPPAMDYWGQGTLVTVSSHHHHHH"
35 nM,6.6 fold,"HG56Y (scFv, AS170036 VL1VH1 scFv mutein; also called AS170036 VL1VH1-VHG56Y) scFv: QSALTQPRSVSGSPGQSVTISCAGTSSDVGSENYVSWYQQHPGKAPKLMIYQVNKRASGVPDRFSGSKSGNTASLTISGLQAEDEADYYCASYRSSDHNIVFGGGTKLTVLGGGGSGGGGSGGGGSEVQLVESGGGLVQPGGSLRLSCAASGFTFSSYAMSWVRQAPGKGLEWVSTINSGTYSPYYADSVKGRFTISRDNSKNTLYLQMNSLRAEDTAVYYCAKNFFDGSWFLGPPAMDYWGQGTLVTVSSHHHHHH"
56 nM,4.1 fold,"HG108E (scFv, AS170036 VL1VH1 scFv mutein; also called AS170036 VL1VH1-VHG108E) scFv: QSALTQPRSVSGSPGQSVTISCAGTSSDVGSENYVSWYQQHPGKAPKLMIYQVNKRASGVPDRFSGSKSGNTASLTISGLQAEDEADYYCASYRSSDHNIVFGGGTKLTVLGGGGSGGGGSGGGGSEVQLVESGGGLVQPGGSLRLSCAASGFTFSSYAMSWVRQAPGKGLEWVSTINSGTGSPYYADSVKGRFTISRDNSKNTLYLQMNSLRAEDTAVYYCAKNFFDGSWFLEPPAMDYWGQGTLVTVSSHHHHHH"
96 nM,2.8 fold,"HG108S (scFv, AS170036 VL1VH1 scFv mutein; also called AS170036 VL1VH1-VHG108S) scFv: QSALTQPRSVSGSPGQSVTISCAGTSSDVGSENYVSWYQQHPGKAPKLMIYQVNKRASGVPDRFSGSKSGNTASLTISGLQAEDEADYYCASYRSSDHNIVFGGGTKLTVLGGGGSGGGGSGGGGSEVQLVESGGGLVQPGGSLRLSCAASGFTFSSYAMSWVRQAPGKGLEWVSTINSGTGSPYYADSVKGRFTISRDNSKNTLYLQMNSLRAEDTAVYYCAKNFFDGSWFLSPPAMDYWGQGTLVTVSSHHHHHH"
58 nM,4.7 fold,"HG108M (scFv, AS170036 VL1VH1 scFv mutein; also called AS170036 VL1VH1-VHG108M) scFv: QSALTQPRSVSGSPGQSVTISCAGTSSDVGSENYVSWYQQHPGKAPKLMIYQVNKRASGVPDRFSGSKSGNTASLTISGLQAEDEADYYCASYRSSDHNIVFGGGTKLTVLGGGGSGGGGSGGGGSEVQLVESGGGLVQPGGSLRLSCAASGFTFSSYAMSWVRQAPGKGLEWVSTINSGTGSPYYADSVKGRFTISRDNSKNTLYLQMNSLRAEDTAVYYCAKNFFDGSWFLMPPAMDYWGQGTLVTVSSHHHHHH"
370 nM,0.7 fold,"HL107M (scFv, AS170036 VL1VH1 scFv mutein) scFv: QSALTQPRSVSGSPGQSVTISCAGTSSDVGSENYVSWYQQHPGKAPKLMIYQVNKRASGVPDRFSGSKSGNTASLTISGLQAEDEADYYCASYRSSDHNIVFGGGTKLTVLGGGGSGGGGSGGGGSEVQLVESGGGLVQPGGSLRLSCAASGFTFSSYAMSWVRQAPGKGLEWVSTINSGTGSPYYADSVKGRFTISRDNSKNTLYLQMNSLRAEDTAVYYCAKNFFDGSWFMGPPAMDYWGQGTLVTVSSHHHHHH"
530 nM,0.5 fold,"HG108T (scFv, AS170036 VL1VH1 scFv mutein) scFv: QSALTQPRSVSGSPGQSVTISCAGTSSDVGSENYVSWYQQHPGKAPKLMIYQVNKRASGVPDRFSGSKSGNTASLTISGLQAEDEADYYCASYRSSDHNIVFGGGTKLTVLGGGGSGGGGSGGGGSEVQLVESGGGLVQPGGSLRLSCAASGFTFSSYAMSWVRQAPGKGLEWVSTINSGTGSPYYADSVKGRFTISRDNSKNTLYLQMNSLRAEDTAVYYCAKNFFDGSWFLTPPAMDYWGQGTLVTVSSHHHHHH"
140 nM,2 fold,"HG108N (scFv, AS170036 VL1VH1 scFv mutein; also called AS170036 VL1VH1-VHG108N) scFv: QSALTQPRSVSGSPGQSVTISCAGTSSDVGSENYVSWYQQHPGKAPKLMIYQVNKRASGVPDRFSGSKSGNTASLTISGLQAEDEADYYCASYRSSDHNIVFGGGTKLTVLGGGGSGGGGSGGGGSEVQLVESGGGLVQPGGSLRLSCAASGFTFSSYAMSWVRQAPGKGLEWVSTINSGTGSPYYADSVKGRFTISRDNSKNTLYLQMNSLRAEDTAVYYCAKNFFDGSWFLNPPAMDYWGQGTLVTVSSHHHHHH"
200 nM,1.4 fold,"HG108Q (scFv, AS170036 VL1VH1 scFv mutein) scFv: QSALTQPRSVSGSPGQSVTISCAGTSSDVGSENYVSWYQQHPGKAPKLMIYQVNKRASGVPDRFSGSKSGNTASLTISGLQAEDEADYYCASYRSSDHNIVFGGGTKLTVLGGGGSGGGGSGGGGSEVQLVESGGGLVQPGGSLRLSCAASGFTFSSYAMSWVRQAPGKGLEWVSTINSGTGSPYYADSVKGRFTISRDNSKNTLYLQMNSLRAEDTAVYYCAKNFFDGSWFLQPPAMDYWGQGTLVTVSSHHHHHH"
380 nM,0.7 fold,"HP58A (scFv, AS170036 VL1VH1 scFv mutein) scFv: QSALTQPRSVSGSPGQSVTISCAGTSSDVGSENYVSWYQQHPGKAPKLMIYQVNKRASGVPDRFSGSKSGNTASLTISGLQAEDEADYYCASYRSSDHNIVFGGGTKLTVLGGGGSGGGGSGGGGSEVQLVESGGGLVQPGGSLRLSCAASGFTFSSYAMSWVRQAPGKGLEWVSTINSGTGSAYYADSVKGRFTISRDNSKNTLYLQMNSLRAEDTAVYYCAKNFFDGSWFLGPPAMDYWGQGTLVTVSSHHHHHH"
42 nM,5.5 fold,"HG108A (scFv, AS170036 VL1VH1 scFv mutein; also called AS170036 VL1VH1-VHG108A) scFv: QSALTQPRSVSGSPGQSVTISCAGTSSDVGSENYVSWYQQHPGKAPKLMIYQVNKRASGVPDRFSGSKSGNTASLTISGLQAEDEADYYCASYRSSDHNIVFGGGTKLTVLGGGGSGGGGSGGGGSEVQLVESGGGLVQPGGSLRLSCAASGFTFSSYAMSWVRQAPGKGLEWVSTINSGTGSPYYADSVKGRFTISRDNSKNTLYLQMNSLRAEDTAVYYCAKNFFDGSWFLAPPAMDYWGQGTLVTVSSHHHHHH"
200 nM,1.4 fold,"HG108L (scFv, AS170036 VL1VH1 scFv mutein) scFv: QSALTQPRSVSGSPGQSVTISCAGTSSDVGSENYVSWYQQHPGKAPKLMIYQVNKRASGVPDRFSGSKSGNTASLTISGLQAEDEADYYCASYRSSDHNIVFGGGTKLTVLGGGGSGGGGSGGGGSEVQLVESGGGLVQPGGSLRLSCAASGFTFSSYAMSWVRQAPGKGLEWVSTINSGTGSPYYADSVKGRFTISRDNSKNTLYLQMNSLRAEDTAVYYCAKNFFDGSWFLLPPAMDYWGQGTLVTVSSHHHHHH"
130 nM,1.7 fold,"HG56W (scFv, AS170036 VL1VH1 scFv mutein) scFv: QSALTQPRSVSGSPGQSVTISCAGTSSDVGSENYVSWYQQHPGKAPKLMIYQVNKRASGVPDRFSGSKSGNTASLTISGLQAEDEADYYCASYRSSDHNIVFGGGTKLTVLGGGGSGGGGSGGGGSEVQLVESGGGLVQPGGSLRLSCAASGFTFSSYAMSWVRQAPGKGLEWVSTINSGTWSPYYADSVKGRFTISRDNSKNTLYLQMNSLRAEDTAVYYCAKNFFDGSWFLGPPAMDYWGQGTLVTVSSHHHHHH"
370 nM,0.7 fold,"HG108V (scFv, AS170036 VL1VH1 scFv mutein) scFv: QSALTQPRSVSGSPGQSVTISCAGTSSDVGSENYVSWYQQHPGKAPKLMIYQVNKRASGVPDRFSGSKSGNTASLTISGLQAEDEADYYCASYRSSDHNIVFGGGTKLTVLGGGGSGGGGSGGGGSEVQLVESGGGLVQPGGSLRLSCAASGFTFSSYAMSWVRQAPGKGLEWVSTINSGTGSPYYADSVKGRFTISRDNSKNTLYLQMNSLRAEDTAVYYCAKNFFDGSWFLVPPAMDYWGQGTLVTVSSHHHHHH"
42 nM,5.5 fold,"HG108D (scFv, AS170036 VL1VH1 scFv mutein; also called AS170036 VL1VH1-VHG108D) scFv: QSALTQPRSVSGSPGQSVTISCAGTSSDVGSENYVSWYQQHPGKAPKLMIYQVNKRASGVPDRFSGSKSGNTASLTISGLQAEDEADYYCASYRSSDHNIVFGGGTKLTVLGGGGSGGGGSGGGGSEVQLVESGGGLVQPGGSLRLSCAASGFTFSSYAMSWVRQAPGKGLEWVSTINSGTGSPYYADSVKGRFTISRDNSKNTLYLQMNSLRAEDTAVYYCAKNFFDGSWFLDPPAMDYWGQGTLVTVSSHHHHHH"
